B1: 22125 (protein)
chain: MALPVTALLLPLALLLHAARPEVQLVESGGGLVQAGGSLRLSCAASGRTFSMGWFRQAPGKEREFVAAITYSGGSPYYADSVKGRFTISRDNAKNTVYLQMNSLKPEDTAVYYCAANPTYGSDWNAENWGQGTQVTVSSGTGGGGSGGGGSGGGGSEFDIQMTQSPSSLSASVGDRVTITCKASDHINNWLAWYQQKPGQAPKLLIYGATTLETGVPSRFSGSGSGTDYTLTISSLQPEDFATYYCQQSWNTPWTFGQGTKLEIKRLEDLKNVFPPEVAVFEPSKAEIAHTQKATLVCLATGFYPDHVELSWWVNGKEVHSGVCTDPQPLKEQPALNDSRYCLSSRLRVSATFWQNPRNHFRCQVQFYGLSENDEWTQDRAKPVTQIVSAEAWGRADCGITSASYHQGVLSATILYEILLGKATLYAVLVSALVLMAMVKRKDSRGRAKRSGSGATNFSLLKQAGDVEENPGPTSATMDWIWRILFLVGAATGAHSGPQVQLQESGGGLAQAGGSLRLSCAASGRTFSMGWFRQAPGKEREFVAAITYSGGSPYYASSVRGRFTISRDNAKNTVYLQMNSLKPEDTAVYYCAANPTYGSDWNAENWGQGTQVTVSSGSGGGGSGGGGSGGGGSFEQVQLQQPGAELVKPGASVKMSCKASGYAFSSYWINWMKQKPGQGLEWIGQIYPGDGDTNYNGKFKGRATLTADTSSSTAYMQLSSLTSEDSAVYFCARSITTVVGCAMDYWGQGTSVTVSSTRIQNPDPAVYQLRDSKSSDKSVCLFTDFDSQTNVSQSKDSDVYITDKCVLDMRSMDFKSNSAVAWSNKSDFACANAFNNSIIPEDTFFPSSDVPCDVKLVEKSFETDTNLNFQNLSVIGFRILLLKVAGFNLLMTLRLWSSRAKRSGSGVKQTLNFDLLKLAGDVESNPGPSRGHMTEYKPTVRLATRDDVPRAVRTLAAAFADYPATRHTVDPDRHIERVTELQELFLTRVGLDIGKVWVADDGAAVAVWTTPESVEAGAVFAEIGPRMAELSGSRLAAQQQMEGLLAPHRPKEPAWFLATVGVSPDHQGKGLGSAVVLPGVEAAERAGVPAFLETSAPRNLPFYERLGFTVTADVEVPEGPRTWCMTRKPGA
B2: 22104 (protein)
chain: MALPVTALLLPLALLLHAARPDIQMTQSPSSLSASVGDRVTITCKASDHINNWLAWYQQKPGQAPKLLIYGATTLETGVPSRFSGSGSGTDYTLTISSLQPEDFATYYCQQSWNTPWTFGQGTKLEIKRLEDLKNVFPPEVAVFEPSEAEISHTQKATLVCLATGFYPDHVELSWWVNGKEVHSGVCTDPQPLKEQPALNDSRYCLSSRLRVSATFWQNPRNHFRCQVQFYGLSENDEWTQDRAKPVTQIVSAEAWGRADCGFTSESYQQGVLSATILYEILLGKATLYAVLVSALVLMAMVKRKDSRGRAKRSGSGATNFSLLKQAGDVEENPGPTSATMDWIWRILFLVGAATGAHSGPQVQLQESGGGLAQAGGSLRLSCAASGRTFSMGWFRQAPGKEREFVAAITYSGGSPYYASSVRGRFTISRDNAKNTVYLQMNSLKPEDTAVYYCAANPTYGSDWNAENWGQGTQVTVSSGSGGGGSGGGGSGGGGSFEQVQLQQPGAELVKPGASVKMSCKASGYAFSSYWINWMKQKPGQGLEWIGQIYPGDGDTNYNGKFKGRATLTADTSSSTAYMQLSSLTSEDSAVYFCARSITTVVGCAMDYWGQGTSVTVSSTRIQNPDPAVYQLRDSKSSDKSVCLFTDFDSQTNVSQSKDSDVYITDKCVLDMRSMDFKSNSAVAWSNKSDFACANAFNNSIIPEDTFFPSPESSCDVKLVEKSFETDTNLNFQNLSVIGFRILLLKVAGFNLLMTLRLWSSRAKRSGSGVKQTLNFDLLKLAGDVESNPGPSRGHMTEYKPTVRLATRDDVPRAVRTLAAAFADYPATRHTVDPDRHIERVTELQELFLTRVGLDIGKVWVADDGAAVAVWTTPESVEAGAVFAEIGPRMAELSGSRLAAQQQMEGLLAPHRPKEPAWFLATVGVSPDHQGKGLGSAVVLPGVEAAERAGVPAFLETSAPRNLPFYERLGFTVTADVEVPEGPRTWCMTRKPGA
B3: 22107 (protein)
chain: MALPVTALLLPLALLLHAARPDIQMTQSPSSLSASVGDRVTITCKASDHINNWLAWYQQKPGQAPKLLIYGATTLETGVPSRFSGSGSGTDYTLTISSLQPEDFATYYCQQSWNTPWTFGQGTKLEIKRLEIQNPDPAVYQLRDSKSSDKSVCLFTDFDSQTNVSQSKDSDVYITDKCVLDMRSMDFKSNSAVAWSNKSDFACANAFNNSIIPEDTFFPSSDVPCDVKLVEKSFETDTNLNFQNLSVIGFRILLLKVAGFNLLMTLRLWSSRAKRSGSGVKQTLNFDLLKLAGDVESNPGPTSATMDWIWRILFLVGAATGAHSGPQVQLQESGGGLAQAGGSLRLSCAASGRTFSMGWFRQAPGKEREFVAAITYSGGSPYYASSVRGRFTISRDNAKNTVYLQMNSLKPEDTAVYYCAANPTYGSDWNAENWGQGTQVTVSSGSGGGGSGGGGSGGGGSFEQVQLQQPGAELVKPGASVKMSCKASGYAFSSYWINWMKQKPGQGLEWIGQIYPGDGDTNYNGKFKGRATLTADTSSSTAYMQLSSLTSEDSAVYFCARSITTVVGCAMDYWGQGTSVTVSSTREDLKNVFPPEVAVFEPSKAEIAHTQKATLVCLATGFYPDHVELSWWVNGKEVHSGVCTDPQPLKEQPALNDSRYCLSSRLRVSATFWQNPRNHFRCQVQFYGLSENDEWTQDRAKPVTQIVSAEAWGRADCGITSASYHQGVLSATILYEILLGKATLYAVLVSALVLMAMVKRKDSRGRAKRSGSGATNFSLLKQAGDVEENPGPSRGHMTEYKPTVRLATRDDVPRAVRTLAAAFADYPATRHTVDPDRHIERVTELQELFLTRVGLDIGKVWVADDGAAVAVWTTPESVEAGAVFAEIGPRMAELSGSRLAAQQQMEGLLAPHRPKEPAWFLATVGVSPDHQGKGLGSAVVLPGVEAAERAGVPAFLETSAPRNLPFYERLGFTVTADVEVPEGPRTWCMTRKPGA
B4: 22108 (protein)
chain: MALPVTALLLPLALLLHAARPQVQLVESGGGLVQPGGSLRLSCAASGFTFTNHAMSWVRQAPGKGLELVSSISGNGRTTYYADSVKGRFTISRDISKNTLDLQMNSLRAEDTAVYYCAKDGGETLVDSRGQGTLVTVSSGTGGGGSGGGGSGGGGSEFDIQMTQSPSSLSASVGDRVTITCKASDHINNWLAWYQQKPGQAPKLLIYGATTLETGVPSRFSGSGSGTDYTLTISSLQPEDFATYYCQQSWNTPWTFGQGTKLEIKRLEDLKNVFPPEVAVFEPSEAEISHTQKATLVCLATGFYPDHVELSWWVNGKEVHSGVCTDPQPLKEQPALNDSRYCLSSRLRVSATFWQNPRNHFRCQVQFYGLSENDEWTQDRAKPVTQIVSAEAWGRADCGFTSESYQQGVLSATILYEILLGKATLYAVLVSALVLMAMVKRKDSRGRAKRSGSGATNFSLLKQAGDVEENPGPTSMDWIWRILFLVGAATGAHSFEQVQLQQPGAELVKPGASVKMSCKASGYAFSSYWINWMKQKPGQGLEWIGQIYPGDGDTNYNGKFKGRATLTADTSSSTAYMQLSSLTSEDSAVYFCARSITTVVGCAMDYWGQGTSVTVSSTRIQNPDPAVYQLRDSKSSDKSVCLFTDFDSQTNVSQSKDSDVYITDKCVLDMRSMDFKSNSAVAWSNKSDFACANAFNNSIIPEDTFFPSPESSCDVKLVEKSFETDTNLNFQNLSVIGFRILLLKVAGFNLLMTLRLWSSRAKRSGSGVKQTLNFDLLKLAGDVESNPGPSRGHMTEYKPTVRLATRDDVPRAVRTLAAAFADYPATRHTVDPDRHIERVTELQELFLTRVGLDIGKVWVADDGAAVAVWTTPESVEAGAVFAEIGPRMAELSGSRLAAQQQMEGLLAPHRPKEPAWFLATVGVSPDHQGKGLGSAVVLPGVEAAERAGVPAFLETSAPRNLPFYERLGFTVTADVEVPEGPRTWCMTRKPGA
B5: 22229 (protein)
chain: MALPVTALLLPLALLLHAARPACEVQLLESGGGLIQPGGSLRLSCAASGFTFSSHAMTWVRQAPGKGLEWVSAISGSGDYTHYADSVKGRFTISRDNSKNTVYLQMNSLRAEDSAVYYCAKDEDGGSLLGHRGQGTLVTVSSGTGAIGFLRTAEFDIQMTQSPSSLSASVGDRVTITCKASDHINNWLAWYQQKPGQAPKLLIYGATTLETGVPSRFSGSGSGTDYTLTISSLQPEDFATYYCQQSWNTPWTFGQGTKLEIKRLEDLKNVFPPEVAVFEPSKAEIAHTQKATLVCLATGFYPDHVELSWWVNGKEVHSGVCTDPQPLKEQPALNDSRYCLSSRLRVSATFWQNPRNHFRCQVQFYGLSENDEWTQDRAKPVTQIVSAEAWGRADCGITSASYHQGVLSATILYEILLGKATLYAVLVSALVLMAMVKRKDSRGRAKRSGSGATNFSLLKQAGDVEENPGPTSATMDWIWRILFLVGAATGAHSGPEVQLVESGGGLVQAGGSLRLSCAASGRTFSMGWFRQAPGKEREFVAAITYSGGSPYYADSVKGRFTISRDNAKNTVYLQMNSLKPEDTAVYYCAANPTYGSDWNAENWGQGTQVTVSSGSGGGGSGGGGSGGGGSFEQVQLQQPGAELVKPGASVKMSCKASGYAFSSYWINWMKQKPGQGLEWIGQIYPGDGDTNYNGKFKGRATLTADTSSSTAYMQLSSLTSEDSAVYFCARSITTVVGCAMDYWGQGTSVTVSSTRIQNPDPAVYQLRDSKSSDKSVCLFTDFDSQTNVSQSKDSDVYITDKCVLDMRSMDFKSNSAVAWSNKSDFACANAFNNSIIPEDTFFPSPESSCDVKLVEKSFETDTNLNFQNLSVIGFRILLLKVAGFNLLMTLRLWSSRAKRSGSGVKQTLNFDLLKLAGDVESNPGPSRGHMTEYKPTVRLATRDDVPRAVRTLAAAFADYPATRHTVDPDRHIERVTELQELFLTRVGLDIGKVWVADDGAAVAVWTTPESVEAGAVFAEIGPRMAELSGSRLAAQQQMEGLLAPHRPKEPAWFLATVGVSPDHQGKGLGSAVVLPGVEAAERAGVPAFLETSAPRNLPFYERLGFTVTADVEVPEGPRTWCMTRKPGA

Legend:
Assay type in all cases: cell-based
[1] = test system: RAJI cells; test: JNG assay, co-culture with RAJI cells; settings: JNG cells expressing construct, co-culture with Raji
Outline: (§1)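 Jurkat-NFAT-GFP (JNG) cells stably expressing SAR constructs via lentiviral transduction and puromycin/blasticidin selection were cocultured with target cells at E:T ~1:2 for ~4–18 h. NFAT-driven GFP was measured by FACS versus parental JNG cells; scores +/- to 5+ denote ~5–50% GFP-positive cells.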

[2] = test system: RAJI-CD19-KO cells; test: JNG assay, co-culture with RAJI-CD19-KO cells; settings: co-culture with Raji-CD19-KO
Outline: as §1

[3] = test system: RS;411; test: JNG assay, co-culture with RS;411 cells; settings: co-culture with RS411
Outline: as §1

Molecule | NFAT-GFP ASSAY: Raji [1] | NFAT-GFP ASSAY: Raji-CD19-KO [2] | NFAT-GFP ASSAY: RS411 [3]
B1 | 4+ (refer to approximately 5%, 10%, 20%, 30%, 40% and 50% GFP positive cells) | 5+ (refer to approximately 5%, 10%, 20%, 30%, 40% and 50% GFP positive cells) | +/- (refer to approximately 5%, 10%, 20%, 30%, 40% and 50% GFP positive cells)
B2 | 5+ (refer to approximately 5%, 10%, 20%, 30%, 40% and 50% GFP positive cells) | 5+ (refer to approximately 5%, 10%, 20%, 30%, 40% and 50% GFP positive cells) | 5+ (refer to approximately 5%, 10%, 20%, 30%, 40% and 50% GFP positive cells)
B3 | 4+ (refer to approximately 5%, 10%, 20%, 30%, 40% and 50% GFP positive cells) | 5+ (refer to approximately 5%, 10%, 20%, 30%, 40% and 50% GFP positive cells) | + (refer to approximately 5%, 10%, 20%, 30%, 40% and 50% GFP positive cells)
B4 | 4+ (refer to approximately 5%, 10%, 20%, 30%, 40% and 50% GFP positive cells) | 3+ (refer to approximately 5%, 10%, 20%, 30%, 40% and 50% GFP positive cells) | 5+ (refer to approximately 5%, 10%, 20%, 30%, 40% and 50% GFP positive cells)
B5 | 3+ (refer to approximately 5%, 10%, 20%, 30%, 40% and 50% GFP positive cells) | 5+ (refer to approximately 5%, 10%, 20%, 30%, 40% and 50% GFP positive cells) | 2+ (refer to approximately 5%, 10%, 20%, 30%, 40% and 50% GFP positive cells)

— patent US20230212319A1, “NOVEL ANTIGEN BINDING DOMAINS AND SYNTHETIC ANTIGEN RECEPTORS INCORPORATING THE SAME” (University of Southern California, priority 2020, published 2023)
